± gives the standard deviation of the averaged measurements.

The results in this text go back to the supplement of paper PMC11246515.

This data set is described as follows: total protein half-life in vivo (active degradation + dilution); higher = more stable protein.
Setting [1] is: E. coli NCM3722 delta-clpP delta-lon delta-hslV, growth: N-lim chemostat, doubling time 6 h.
Setting [2] is: E. coli NCM3722 delta-clpP, growth: N-lim chemostat, doubling time 6 h.
Setting [3] is: E. coli NCM3722 delta-hslV, growth: N-lim chemostat, doubling time 6 h.
[4] abbreviates: E. coli NCM3722 delta-smpB, growth: N-lim chemostat, doubling time 6 h.
Setting [5] is: wild type E. coli NCM3722, growth: C-lim chemostat, doubling time 3 h.
Setting [6] is: wild type E. coli NCM3722, growth: C-lim chemostat, doubling time 6 h.
The mark [7] stands for this setting: wild type E. coli NCM3722, growth: C-lim chemostat, doubling time 12 h.
The mark [8] stands for this setting: wild type E. coli NCM3722, growth: N-lim chemostat, doubling time 6 h.
Setting [9] is: wild type E. coli NCM3722, growth: N-lim chemostat, doubling time 12 h.
Where [10] appears, read: wild type E. coli NCM3722, growth: P-lim chemostat, doubling time 6 h.
Setting [11] is: wild type E. coli NCM3722, growth: P-lim chemostat, doubling time 12 h.
Where [12] appears, read: E. coli NCM3722 delta-lon, growth: N-lim chemostat, doubling time 6 h.

Take “MTSPNILLTRIDNRLVHGQVGVTWTSTIGANLLVVVDDVVANDDIQQKLMGITAETYGFGIRFFTIEKTINVIGKAAPHQKIFLICRTPQTVRKLVEGGIDLKDVNVGNMHFSEGKKQISSKVYVDDQDLTDLRFIKQRGVNVFIQDVPGDQKEQIPD”: the “total protein half-life in vivo” value was found to be 5.94 ± 1 h under setting [1]; 3.82 ± 0.62 h under setting [2]; 4.08 ± 0.26 h under setting [3]; 4.01 ± 0.37 h under setting [4]; 3.52 ± 0.3 h under setting [5]; 5.07 ± 0.32 h under setting [6]. Also, the “total protein half-life in vivo” value under setting [7] was 6.95 ± 0.34 h; the “total protein half-life in vivo” value under setting [8] stood at 3.67 h; the “total protein half-life in vivo” value under setting [9] came to 6.28 ± 0.71 h; the “total protein half-life in vivo” value under setting [10] turned out to be 4.28 ± 1.7 h; the “total protein half-life in vivo” value under setting [11] was 11 ± 0.5 h.
Consider “MARRILVVEDEAPIREMVCFVLEQNGFQPVEAEDYDSAVNQLNEPWPDLILLDWMLPGGSGIQFIKHLKRESMTRDIPVVMLTARGEEEDRVRGLETGADDYITKPFSPKELVARIKAVMRRISPMAVEEVIEMQGLSLDPTSHRVMAGEEPLEMGPTEFKLLHFFMTHPERVYSREQLLNHVWGTNVYVEDRTVDVHIRRLRKALEPGGHDRMVQTVRGTGYRFSTRF [P0AFJ5]”, for which the “total protein half-life in vivo” value reads like this: under setting [2], 4.76 ± 0.81 h; under setting [3], 3.79 ± 1.1 h; under setting [12], 5.36 ± 0.14 h; under setting [4], 4.52 ± 0.53 h; under setting [5], 2.93 ± 0.28 h; under setting [6], 5.33 ± 0.14 h. In addition, the “total protein half-life in vivo” value runs as follows: under setting [7], 8.01 ± 1.2 h; under setting [8], 4.51 ± 0.3 h; under setting [9], 8.09 h; under setting [10], 6.11 ± 1 h; under setting [11], 11.3 ± 0.5 h.
Take “MEYFDMRKMSVNLWRNAAGETREICTFPPAKRDFYWRASIASIAANGEFSLFPGMERIVTLLEGGEMLLESADRFNHTLKPFQPFAFAADQVVKAKLTAGQMSMDFNIMTRLDVCKAKVRIAERTFTTFGSRGGVVFVINGAWQLGDKLLTTDQGACWFDGRHTLRLLQPQGKLLFSEINWLAGHSPDQVQ”: the “total protein half-life in vivo” value under setting [5] was 0.307 h.
For the sequence “MPENYTPAAAATGTWTEEEIRHQPRAWIRSLTNIDALRSALNNFLEPLLRKENLRIILTGAGTSAFIGDIIAPWLASHTGKNFSAVPTTDLVTNPMDYLNPAHPLLLISFGRSGNSPESVAAVELANQFVPECYHLPITCNEAGALYQNAINSDNAFALLMPAETHDRGFAMTSSITTMMASCLAVFAPETINSQTFRDVADRCQAILTSLGDFSEGVFGYAPWKRIVYLGSGGLQGAARESALKVLELTAGKLAAFYDSPTGFRHGPKSLVDDETLVVVFVSSHPYTRQYDLDLLAELRRDNQAMRVIAIAAESSDIVAAGPHIILPPSRHFIDVEQAFCFLMYAQTFALMQSLHMGNTPDTPSASGTVNRVVQGVIIHPWQA”, the “total protein half-life in vivo” value under setting [5] was found to be 3.44 ± 0.35 h, the “total protein half-life in vivo” value under setting [6] was determined as 3.18 h and the “total protein half-life in vivo” value under setting [7] came to 5.91 h.
Consider “MLKTIQDKARHRTRPLWAWLKLLWQRIDEDNMTTLAGNLAYVSLLSLVPLVAVVFALFAAFPMFSDVSIQLRHFIFANFLPATGDVIQRYIEQFVANSNKMTAVGACGLIVTALLLMYSIDSALNTIWRSKRARPKIYSFAVYWMILTLGPLLAGASLAISSYLLSLRWASDLNTVIDNVLRIFPLLLSWISFWLLYSIVPTIRVPNRDAIVGAFVAALLFEAGKKGFALYITMFPSYQLIYGVLAVIPILFVWVYWTWCIVLLGAEITVTLGEYRKLKQAAEQEEDDEP [P0A8K8]”, for which the “total protein half-life in vivo” value was 4.46 h under setting [4], greater than 4 h under setting [5], 7.67 h under setting [8] and greater than 16 h under setting [11].
In the case of “MAQEIELKFIVNHSAVEALRDHLNTLGGEHHDPVQLLNIYYETPDNWLRGHDMGLRIRGENGRYEMTMKVAGRVTGGLHQRPEYNVALSEPTLDLAQLPTEVWPNGELPADLASRVQPLFSTDFYREKWLVAVDGSQIEIALDQGEVKAGEFAEPICELELELLSGDTRAVLKLANQLVSQTGLRQGSLSKAARGYHLAQGNPAREIKPTTILHVAAKADVEQGLEAALELALAQWQYHEELWVRGNDAAKEQVLAAISLVRHTLMLFGGIVPRKASTHLRDLLTQCEATIASAVSAVTAVYSTETAMAKLALTEWLVSKAWQPFLDAKAQGKISDSFKRFADIHLSRHAAELKSVFCQPLGDRYRDQLPRLTRDIDSILLLAGYYDPVVAQAWLENWQGLHHAIATGQRIEIEHFRNEANNQEPFWLHSGKR”, the “total protein half-life in vivo” value under setting [1] is 5.73 ± 0.11 h; the “total protein half-life in vivo” value under setting [2] is 5.48 ± 0.56 h; the “total protein half-life in vivo” value under setting [3] was 5.22 ± 0.088 h; the “total protein half-life in vivo” value under setting [12] was found to be 4.91 ± 1.1 h; the “total protein half-life in vivo” value under setting [4] was 4.78 ± 0.12 h; the “total protein half-life in vivo” value under setting [5] turned out to be 3.09 ± 0.13 h. Moreover, the “total protein half-life in vivo” value under setting [6] stood at 6.25 ± 0.19 h; the “total protein half-life in vivo” value under setting [7] worked out at 10.7 ± 1.1 h; the “total protein half-life in vivo” value under setting [8] stood at 5.37 ± 0.26 h; the “total protein half-life in vivo” value under setting [9] was 8.65 ± 0.74 h; the “total protein half-life in vivo” value under setting [10] is 6.02 ± 0.58 h; the “total protein half-life in vivo” value under setting [11] worked out at 11.6 ± 1.1 h.
Consider “MTNITLQKQHRTLWHFIPGLALSAVITGVALWGGSIPAVAGAGFSALTLAILLGMVLGNTIYPHIWKSCDGGVLFAKQYLLRLGIILYGFRLTFSQIADVGISGIIIDVLTLSSTFLLACFLGQKVFGLDKHTSWLIGAGSSICGAAAVLATEPVVKAEASKVTVAVATVVIFGTVAIFLYPAIYPLMSQWFSPETFGIYIGSTVHEVAQVVAAGHAISPDAENAAVISKMLRVMMLAPFLILLAARVKQLSGANSGEKSKITIPWFAILFIVVAIFNSFHLLPQSVVNMLVTLDTFLLAMAMAALGLTTHVSALKKAGAKPLLMALVLFAWLIVGGGAINYVIQSVIA”, for which the “total protein half-life in vivo” value under setting [2] stood at 2.86 h.
Consider “MVTINNARKILQRVDTLPLYLHAYAFHLNMRLERVLPADLLDIASENNLRGVKIHVLDGERFSLGNMDDKELSAFGDKARRLNLDIHIETSASDKASIDEAVAIALKTGASSVRFYPRYEGNLRDVLSIIANDIAYVRETYQDSGLTFTIEQHEDLKSHELVSLVKESEMESLSLLFDFANMINANEHPIDALKTMAPHITQVHIKDALIVKEPGGLGHKACISGQGDMPFKALLTHLICLGDDEPQVTAYGLEEEVDYYAPAFRFEDEDDNPWIPYRQMSETPLPENHLLDARLRKEKEDAINQINHVRNVLQQIKQEANHLLNH”, for which the “total protein half-life in vivo” value reads like this: under setting [1], 4.45 ± 0.4 h; under setting [2], 2.09 ± 0.14 h; under setting [3], 2.28 ± 0.57 h; under setting [12], 3.21 h; under setting [4], 1.68 ± 0.29 h; under setting [5], 1.99 ± 0.052 h. The “total protein half-life in vivo” value was 2.9 h under setting [6]; 4.36 ± 0.28 h under setting [7]; 2.77 h under setting [8]; 3.27 ± 0.036 h under setting [9]; 2.88 h under setting [10]; 4.74 ± 0.53 h under setting [11].
Regarding “MIRQRRRALTPEQQQEMGQQAATRMMTYPPVVMAHTVAVFLSFDGELDTQPLIEQLWRAGKRVYLPVLHPFSAGNLLFLNYHPQSELVMNRLKIHEPKLDVRDVLPLSRLDVLITPLVAFDEYGQRLGMGGGFYDRTLQNWQHYKTQPVGYAHDCQLVEKLPVEEWDIPLPAVVTPSKVWEW [P0AC28]”, the “total protein half-life in vivo” value was determined as 4.93 ± 0.7 h under setting [1]; 3.88 ± 0.18 h under setting [2]; 2.6 ± 0.54 h under setting [12]; 2.58 h under setting [4]; 2.75 ± 0.068 h under setting [5]; 4.81 ± 0.41 h under setting [6]. In addition, the “total protein half-life in vivo” value is 7.66 ± 1.6 h under setting [7]; 2.59 h under setting [8]; 4.35 h under setting [9]; 3.85 ± 0.24 h under setting [10]; 7.8 ± 0.34 h under setting [11].
